Results on 14 sequences are retold here after the DeepSol protein solubility set.

The nature of this data set: soluble on expression in E. coli; label from the status in PepcDB or PDB records.
Turning to “MGSDKIHHHHHHMFAMAGFPDKIKTIKKGLDVPIAGEPRQEIDCCARPAKVALLGEEYVGLKPTLLVEVGDRVKKGQTLFEDKKAPGIGFTAPASGVVVEINRGERRVLQSVVIQVEGDEQVTFKAYSDLSRLSREAVQQNLAESGLWTALRTRPFSRVPLLDSEPAAIFVNAMDTNPLAADPRVIIAEQREAFAAGLEVLTYLTSGKIHLCHDAGEALPGADLARVESHRFAGVHPAGLVGTHIHFIAPASLERPVWHLGYQDVIAYGKLFLTGELYTDRVVALGGPTALNPRLLRTQLGAQLSTLVEGEIKPGSNRVVSGSVLAGHTAFGVHDYLGRFHQQISVLAEDAKHQLLPWVRGGADKFSITRAVTSRFKATKRLFDLTTHAGGSHRAMMAFGQLDRVMPLDILPTLLVRDLVVRDTDEAQALGALELDEEDLALCTFVCPGKYDFGRELRICLDIIEREG”, the “soluble on expression in E. coli” value is “not soluble”. The value for “MRTNVRLLAYRLLRKYEKEKFISREDVDSVLSFLDDRDRRFFKELVWGVVRKEELLDWYINQLLKKKDIPPAVRVALRMGAYQLLFMNSVPDYAAVSETVKLVKNENFKKLVNAVLRRLRTVPEPKELHLVYSHPEWIVNYWRSFLPEEAVLRIMKWNQEPLPVMLRVNSLAATKEEVIKILAEEGTEAVPGKHAPFSLIVRKLGVPMNDSRVINDGLASVQGESSQLVPFFMELRPGLRVLDTCAAPGGKTTAIAELMKDQGKILAVDISREKIQLVEKHAKRLKLSSIETKIADAERLTEYVQDTFDRVLVDAPCTSLGTARNHPEVLRRVNKEDFEKFSEIQLRMVQQAWQLLEKGGILLYSTCTVTKEENTEVVKRFVYEQKDVEVIDIRDKMKEFEVEGIWDGYGFLMLPDETITPFYISVLRKMG” was “soluble”; that for “MDEDLTPIPSLTPDIQKFRIYGRVTYFQENKNGNGIHFLLTDSLGCSIKCIVTVEAVVKHCKDQLKLGQPCYVRGGRVDYHDKRYPNRTGHDCVIFNNNIAEIQITTVATNFVTPIATLNAPKIIYKVHGMITQRGKYSKKEVFCFVITDDKGDSVNVAAFCEFADWLYENLKEKQWYYLYCGLIEKVCKPDDQKEPNNVIILHNKCQIETPSDPSVADPFAELDDLNCTINKMKL” was “not soluble”.

Take “MRTVALGIVAMACLVAIAHGGNFFQDAEVSWGQGRGKIVDGGRGLDLTLDRSSGSGFQSKSEYLFGKIDMQIKLVPGNSAGTVTTFYLSSQGSTHDEIDFEFLGNVTGEPYTLHTNVFTQGQGQREQQFRLWFDPTQSFHTYSIIWNPQHVIFAVDGTPIRDFKNHEARGVAFPKSQPMRVYASLWNADDWATQGGRVKADWSKAPFVASFRDFNADACVWSNGAQRCPVGTMETVAAPAGGRRGGAGGWWNQELSDMSYRRMRWVQRKFMIYNYCTDAKRFPQGTPAECKLR”: the “soluble on expression in E. coli” value is “soluble”. The value for “MTEQYYKIALLFNANKVYDRQVVEGIGQYIQASQCMWDIFVEDEFIYHTDTINQLSIDGIIADFDDPKTVELLQHTLIPTIAVGGSYKQADFYPHFPYIATDNMALVEMALSHLQEKGLSQFAFYGLQVNTHKHWSIERRDAFVELMEKNHYPIYLYEGVQVHAQNWLEEQQKLIVWLKSLPSHTGIIAVTDARARHLLQACEYSKIAVPEELCVVGIDNEELIQYLSRMSLSSVEQGTREIGYQAAKLLHKLLNGQKVSHTPILIPPITVHSRNSTDYRSLTDPLVIQAMHYIRHRACHRIKVGQVLDHLETSRSNLEQRFKNEMNKTIHQVIHEEKISRAKNLLQQTDISIKEITEICGYPSIQYFYSVFKKEFEMTPKEFRLNC” was “not soluble”; that for “MSLKRIKTVLAATDLSAPARHAAMRAALLAGQTDAKLGLLHVVDLQLMEHLRSFAGRSGEAAERRLIGEAMKELERLATDMTHRWGSAVEVRLVVGAVLKEIVAHADTLDADLLVMGARGAGFVRELLLGSTTERVLRLITRPVLMVKQIPHGPYQRVLVAVDFSERSVAALRLARWVAPEAHFVVLNAFQPPLENKLRQGGADEFEIMELRDAARRDADARMDEVMAHAGFPAERLTRLVLPGPALDCVLEQEQEQDCDLIVVGKHGYGWIEEMLLGSLTKHLLALSSCDVLVASQSREGHHHHHH” was “soluble”.

On to “SKIFDFVKPGVITGDDVQKVFQVAKENNFALPAVNCVGTDSINAVLETAAKVKAPVIVQFSNGGASFIAGKGVKSDVPQGAAILGAISGAHHVHQMAEHYGVPVILHTDHCAKKLLPWIDGLLDAGEKHFAATGKPLFSSHMIDLSEESLQENIEICSKYLERMSKIGMTLEIELGCTGGEEDGVDNSHMDASALYTQPEDVDYAYTELSKISPRFTIAASFGNVHGVYKAGNVVLTPTILRDSQEYVSKKHNLPHNSLNFVFHGGSGSTAQEIKDSVSYGVVKMNIDTDTQWATWEGVLNYYKANEAYLQGQLGNPKGEDQPNKKYYDPRVWLRAGQTSMIARLEKAFQELNAIDVL”, for which the “soluble on expression in E. coli” value is “soluble”. Take “TRFVPGGPVERMLSQMQSQGDGAASMTSAGGNTALSDEQIAELNAFYGLDKPVMEAYVDWLSRLVTLDLGESTRYYEPVSDMIAERLP”: the “soluble on expression in E. coli” value is listed as “not soluble”.

In the case of “SNNVLPTWSLDSNGEMRSRLSLSEVLDSGDLMKFAVDKTGCQFLEKAVKGSLTSYQKFQLFEQVIGRKDDFLKLSTNIFGNYLVQSVIGISLATNDDGYTKRQEKLKNFISSQMTDMCLDKFACRVIQSSLQNMDLSLACKLVQALPRDARLIAICVDQNANHVIQKVVAVIPLKNWEFIVDFVATPEHLRQICSDKYGCRVVQTIIEKLTADSMNVDLTSAAQNLRERALQRLMTSVTNRCQELATNEYANYIIQHIVSNDDLAVYRECIIEKCLMRNLLSLSQEKFASHVVEKAFLHAPLELLAEMMDEIFDGYIPHPDTGKDALDIMMFHQFGNYVVQCMLTICCDAVSGRRQTKEGGYDHAISFQDWLKKLHSRVTKERHRLSRFSSGKKMIETLANLRSTHPIYELQ”, the “soluble on expression in E. coli” value is listed as “soluble”. Consider “MKIAALYDIHGNYPALKEVLKQVKKLSPDLVVLGGDLIAGPMPLETLSLLKHVSTTFKTVGIMGNNDQDIVDIYAKKRVGLSRKATEQLTWIANQLSYKQVSFLRNLLPSISIGNYFFCHAVKNDNTTVFSPQQNKAYIETLFKGVQESYIICGHTHIQFELSLPNKKIINAGSIGMPFSNQFGAQWLWLDDNRIEYKRTIFNQQAAIQLISQTEYPFKNEFLEHHHHHH”, for which the “soluble on expression in E. coli” value is “not soluble”.

For the sequence “MSNVISVENLGKKYLISHQGREPYTALRDVLTDGARAFYRRLFSPGTSQADAQAEEFWALKDVSFEVKQGDRIGIIGRNGAGKSTLLKILSRITEPTEGRVRIRGRVASLLEVGTGFHPELTGRENIFLNGAILGMNRAEIARKFDEIVAFAEIEKFLDTPVKRYSSGMYVRLAFAVAAHLEPEILIVDEVLAVGDAQFQNKCLGKMEDVSTKEGRTVLFVSHNMGAIDRLCTRAVLLERGRVRLADFTKPVIQMYLDKAKNAISAWSCSTSIPDFDGIFFESISIVNKDRKIAEVLPSNEPFSITLVVNATASLKGVQIAIRITNEQGIPILTTTNCDKAGKLQEISRGRYRYTVSLPASFLPPGYYTLIVASFVPGEKLFDGVEDKLGFCIDDMGSLATLMKDGRLGVVTPLMPWDEVRLLEHHHHHH”, the “soluble on expression in E. coli” value is “soluble”. For “SNGILREVSGIASNSAFYWTNLTSKPYMGFRSGRNWSMTSGDIRTVRSQVPEVEFISPIMWGARSNKNVVFGDKSETYSIVGAEPDYFEISRVNILQGRMLNAVDDKLRRKVCMIGKEVKEKLFGTTDPIGQVLRVNGLYYRVIGVLEAKSNNVTIGSSPKRSVYLPYSVLQQISNSGNRVENFAVSAYPSADMKQMFKKTETIIRSRNQIAPDDDKALSKFDISAQFQLMNMIFTGINL”, the “soluble on expression in E. coli” value was “not soluble”. Regarding “MPVLHNRISNDELKAKMLAESEPRTTISFYKYFTIASPQQTRDALYQVFTALDVFGRVYLAHEGINAQISVPQSKLETFRQQLYTFDPALDGVRLNIALEDDGKSFWVLRMKVRDRIVADGIDDPTFDASNVGDYLKAADVNAMLDDPDAVFIDMRNHYEYEVGHFENALEIPADTFREQLPKAVEMLREHADKKIVMYCTGGIRCEKASAWMKHNGFNKVWHIEGGIIEYARRARAQGLPVRFIGKNFVFDERMGERISDEVIAHCHQCGASCDSHTNCKNDGCHLLFIQCPQCASKFNGCCSEQCCEELALPEEEQRRRRAGRENGNKIFNKSRGRLNSKLSIPDPAEAAALEHHHHHH”, the “soluble on expression in E. coli” value was “soluble”. As for “MGMVSDAVIRHQGKVIAVYPDGILPLEPPRQNASQLYLTSGMDERKRKLIDLGEAFVILAGGFGTMEESFQLLTEMSINQTAVRPVIFVGRKFYQPLFDLLRLQLKEGMISKEVIDAISLVDTAEETIELLGDLKLEQVVLEHHHHHH”, the “soluble on expression in E. coli” value is recorded as “not soluble”.
